From patent US20050191621A1

Columns and labels:
[1] = biological target: IIIB-V3BaL Env (HXB Env with the V3 loop of HIV-1/BaL; on luciferase reporter virions) (HIV-1 (IIIB/BaL chimera)); assay: cell-based or functional assay
[2] = biological target: 8x-V3BaL Env (8x Env with the V3 loop of HIV-1/BaL; on cells or on luciferase reporter virions) (HIV-1 (IIIBx 8x/BaL chimera)); assay: cell-based or functional assay

| Substance | concentration of antibody required to neutralize 50% of input virus (luciferase reporter virus, GHOST-CCR5 cells) [1] | concentration of antibody required to neutralize 90% of input virus (luciferase reporter virus, GHOST-CCR5 cells) [1] | concentration of antibody required to neutralize 50% of input virus (luciferase reporter virus, GHOST-CCR5 cells) [2] | concentration of antibody required to neutralize 90% of input virus (luciferase reporter virus, GHOST-CCR5 cells) [2] | percent neutralization at 200 ng/ml (luciferase reporter virus, GHOST-CCR5 cells) [2] |
| --- | --- | --- | --- | --- | --- |
| CD4-induced (CD4i) monoclonal antibody 17b | 14 ng/mL | 90 ng/mL | 2 ng/mL | 15 ng/mL |  |
| CD4-induced (CD4i) monoclonal antibody 48d | > 5000 ng/mL | > 5000 ng/mL | 3 ng/mL | > 200 ng/mL | 88% |
